Assay results reported in US20210388087A1 (Chugai, published 2021).
Positions count from the first letter of the chain named. Names and notes keep the numbering of the source.

B1: H183/L072 VH V63M (antibody, name in Kabat numbering, V domains shown)
VH: QVQLVESGGGLVQPGRSLRLSCAASGFTFSNAWMHWVRQAPGKGLEWVAQIKDKGNAYAAYYAPSMKGRFTISRDDSKNSIYLQMNSLKTEDTAVYYCHYVHYASASTVLPAFGVDAWGQGTTVTVSS
VL: DIVMTQSPLSLPVTPGEPASISCQASQELVHMNRNTYLHWYQQKPGQAPRLLIYKVSNRFPGVPDRFSGSGSGTDFTLKISRVEAEDVGVYYCAQGTSVPFTFGQGTKLEIK
B2: H183/L072 VH V63P (antibody, name in Kabat numbering, V domains shown)
VH: B1 VH with M66P
VL: B1 VL
B3: H183/L072 VH V95A (antibody, name in Kabat numbering, V domains shown)
VH: B1 VH with M66V, V101A
VL: B1 VL
B4: H183/L072 VH V95I (antibody, name in Kabat numbering, V domains shown)
VH: B1 VH with M66V, V101I
VL: B1 VL
B5: H183/L072 VH V95L (antibody, name in Kabat numbering, V domains shown)
VH: B1 VH with M66V, V101L
VL: B1 VL
B6: H183/L072 VH V95M (antibody, name in Kabat numbering, V domains shown)
VH: B1 VH with M66V, V101M
VL: B1 VL
B7: H183/L072 VH V95P (antibody, name in Kabat numbering, V domains shown)
VH: B1 VH with M66V, V101P
VL: B1 VL
B8: H183/L072 VH V100cA (antibody, name in Kabat numbering, V domains shown)
VH: B1 VH with M66V, V109A
VL: B1 VL
B9: H183/L072 VH V100cI (antibody, name in Kabat numbering, V domains shown)
VH: B1 VH with M66V, V109I
VL: B1 VL
B10: H183/L072 VH V100cL (antibody, name in Kabat numbering, V domains shown)
VH: B1 VH with M66V, V109L
VL: B1 VL
B11: H183/L072 VH V100cM (antibody, name in Kabat numbering, V domains shown)
VH: B1 VH with M66V, V109M
VL: B1 VL
B12: H183/L072 VH V100cP (antibody, name in Kabat numbering, V domains shown)
VH: B1 VH with M66V, V109P
VL: B1 VL
B13: H183/L072 VH V100iA (antibody, name in Kabat numbering, V domains shown)
VH: B1 VH with M66V, V115A
VL: B1 VL
B14: H183/L072 VH V100iI (antibody, name in Kabat numbering, V domains shown)
VH: B1 VH with M66V, V115I
VL: B1 VL
B15: H183/L072 VH V100iL (antibody, name in Kabat numbering, V domains shown)
VH: B1 VH with M66V, V115L
VL: B1 VL
B16: H183/L072 VH V100iM (antibody, name in Kabat numbering, V domains shown)
VH: B1 VH with M66V, V115M
VL: B1 VL
B17: H183/L072 VH V100iP (antibody, name in Kabat numbering, V domains shown)
VH: B1 VH with M66V, V115P
VL: B1 VL
B18: H183/L072 VH W33A (antibody, name in Kabat numbering, V domains shown)
VH: B1 VH with W33A, M66V
VL: B1 VL

Molecular target: T1, Human CD3eg linker (human)
T1 construct: Single chain: epsilon and gamma subunits of human CD3 joined by a 29-mer linker, Flag-tag at the C-terminus; also called recombinant human CD3
T1 chain: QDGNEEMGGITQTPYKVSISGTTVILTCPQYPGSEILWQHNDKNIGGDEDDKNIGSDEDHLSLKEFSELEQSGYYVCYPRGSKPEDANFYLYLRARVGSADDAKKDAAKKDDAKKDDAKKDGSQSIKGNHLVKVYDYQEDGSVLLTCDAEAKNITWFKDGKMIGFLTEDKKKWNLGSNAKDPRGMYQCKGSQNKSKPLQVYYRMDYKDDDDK
Experiment: Biacore SPR, vs template H183/L072

| Binder | fold change of affinity [fold] |
| --- | --- |
| B1 | 1.4 |
| B2 | 1.2 |
| B3 | 0 |
| B4 | 7.5 |
| B5 | 0 |
| B6 | 0.3 |
| B7 | 0 |
| B8 | 1.1 |
| B9 | 1 |
| B10 | 1.2 |
| B11 | 1.2 |
| B12 | 1 |
| B13 | 4.6 |
| B14 | 0.8 |
| B15 | 1.8 |
| B16 | 5.6 |
| B17 | 1.2 |
| B18 | 0 |
